Source: the supplement of paper PMC9170038

Columns and labels:
[1] = tested on: MS2 coat protein; test: apparent KD of MS2 coat protein; designed switch direction (-1 OFF switch, 1 ON switch): 1; higher = weaker reporter binding
Method in brief: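 Three titration conditions were used: no input, 200 uM small-molecule ligand, and an oligonucleotide input. In each, SNAP-549-labelled MS2 coat protein was raised from 0.7 or 1.5 nM, doubling, to 3 µM over designed RNA switches transcribed on Illumina chips by stalled E. coli RNA polymerase. Curve fits of normalised cluster fluorescence gave values whose per-design median over clusters is the apparent KD.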

[2] = tested on: MS2 coat protein; test: apparent KD of MS2 coat protein; higher = weaker reporter binding; settings: Eterna round: R107
Method in brief: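 On-chip transcription from Illumina sequencing clusters produced the designed RNA switches. These were titrated with SNAP-549-labelled MS2 coat protein (twofold steps, 0.7 or 1.5 nM to 3 µM) in 100 mM Tris-HCl pH 7.5, 80 mM KCl, 4 mM MgCl2, with or without constant ligand. The apparent KD given is the per-design median of normalised cluster binding-curve fits.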

[3] = Eterna round: R95, input ligand: FMN 200 uM
[4] = Eterna round: R95, input ligand: microRNA oligo, concentration not stated
[5] = Eterna round: R95, input ligand: none
[6] = input ligand: microRNA oligo, concentration not stated
[7] = input ligand: theophylline 20 uM
[8] = input ligand: theophylline 2 mM
[9] = input ligand: tryptophan 2.4 mM

Sequence | apparent KD of MS2 coat protein ([2]; input ligand: arginine 13.2 mM) | apparent KD of MS2 coat protein [2, 7] | apparent KD of MS2 coat protein [2, 8] | apparent KD of MS2 coat protein ([2]; input ligand: none) | apparent KD of MS2 coat protein [2, 9] | also measured
AAAACACAUGAGGAUCACCCAUGUACCAGGUACAUAGGAUAUCCAGGCGCCAGAUGGCGCGGAGAAGGAUGGAAAA [Xeveoned] (puzzle: Same State 1) | – | – | – | – | – | apparent KD of MS2 coat protein [1, 3]: 90.8 nM; apparent KD of MS2 coat protein [1, 4]: 162 nM; apparent KD of MS2 coat protein [1, 5]: 251 nM
AAAACAUGACGAGGAUAUGGUACAUGAGGAUCACCCAUGUAUGUACCACGACGGAAACGUCGAAUCCAGAAGGCGUCAUGAAAA [Mat - Same State NG 2 - JL mod - D25] (Eterna round: R96, puzzle: Same State NG 2) | – | – | – | – | – | apparent KD of MS2 coat protein ([1]; input ligand: FMN 200 uM): 34.6 nM; apparent KD of MS2 coat protein [1, 6]: 173 nM; apparent KD of MS2 coat protein ([1]; input ligand: none): 194 nM
AAAAGUUGCGGGCAGGAUAUGUAUUAAAAUACAUGAGGAUCACCCAUGUGCGGGUAUAACACCCGACAGAAGGGCCAAUCGCGAC [Mat - Same State 2 - Mod of UCT - D95] (puzzle: Same State 2) | – | – | – | – | – | apparent KD of MS2 coat protein [1, 3]: 29.6 nM; apparent KD of MS2 coat protein [1, 4]: 160 nM; apparent KD of MS2 coat protein [1, 5]: 226 nM
AAAAUACAUGAGGAUCACCCAUGUCUAAAGAACGGAGGAUAUAGGCGUACAAAACACGCACUAGAAGGCUGGGUGC [Tesoonge] (puzzle: Same State 1) | – | – | – | – | – | apparent KD of MS2 coat protein [1, 3]: 151 nM; apparent KD of MS2 coat protein [1, 4]: 116 nM; apparent KD of MS2 coat protein [1, 5]: 155 nM
AAAAUACAUGAGGAUCACCCAUGUGAAAAUAUGGGAGGAUAUACCGAAAAAAAAAAAAAGGUAGAAGGCCCAAAAA [SS! 1 MT 5] (Eterna round: R96, puzzle: Same State 1) | – | – | – | – | – | apparent KD of MS2 coat protein ([1]; input ligand: FMN 200 uM): 39.5 nM; apparent KD of MS2 coat protein [1, 6]: 31 nM; apparent KD of MS2 coat protein ([1]; input ligand: none): 34.6 nM
AAACAGUCGCUGCGGCGACCACAUGAGGAUCACCCAUGUACAUAGGAUAUCGCCUAAAAUACUGGCGAGAAGGGUGAUUAAAGA [Vegeonor] (Eterna round: R96, puzzle: Same State NG 3) | – | – | – | – | – | apparent KD of MS2 coat protein ([1]; input ligand: FMN 200 uM): 90.4 nM; apparent KD of MS2 coat protein [1, 6]: 12.4 nM; apparent KD of MS2 coat protein ([1]; input ligand: none): 55.9 nM
UUAUAAGUACCGGUCCUCAGAUCCUCAUGACGAGGACCGGUACGGCCGCCACUCGAAACAUGAGGAUCACCCAUGUAAUAACACU [Brourdmod20] | 19.2 nM | 30.4 nM | 24.6 nM | – | – | –
UUAUUUAACGGAAGGAGCGCGGAAAUUAAAGUGGGUAAACAUGAGGAUCACCCAUGUAAACCGCAGGUAGGUCGCCGAUAUUUAU [#22 Exclusion - Arginine B] | 43 nM | 67.3 nM | 82.1 nM | 84.5 nM | 71.9 nM | –
UUAUUUAUAAUGGAUACCAGUCGUAUGGCCCGGAAUCCUGACAUGAGGAUCACCCAUGUCGACCCUUGGCAGCUGUUAUGGGUUU [XTheo B #22] | 13.7 nM | 16.3 nM | – | – | 14.9 nM | –
UUCAAAGGGAACGGUGCUGGUAACAGAGAUACCAGAGUAAUAAUACUCCCUUGGCAGCUCAUAACAUGAGGAUCACCCAUGUAAU [Exclusion Theophylline A GF21] | 12.4 nM | 17.4 nM | – | – | 13.5 nM | –
UUCAGCUAGUCGGCCGCCACUACAUGAGCAUCAGCCAUGUUCCUAAAACACUGCUUCGGCAGUGGUAGGACCGGGACUAGCUGAG | 10.4 nM | 12 nM | 12.6 nM | 11 nM | 25.9 nM | –
UUCAGUACAACAGAUACCAGACAGUACUCUAAAUUGCAACAUGAGGAUCACCCAUGUAUAGUCCCUUGGCAGCUGUAAUGGGUGA [Theo B SS s2] | 150 nM | 159 nM | – | – | 70.8 nM | –
UUCGCGGCCGCGCUGCACAUGUGUGUGUUACGAGGACCGGUACGGCCGCCACUCGCGAUCGCACAUGAGGAUCACCCAUGUGGGA [Exclusion Tryp A GF17] | 24.1 nM | 35.8 nM | 75.6 nM | 25.7 nM | 1040 nM | –
UUCUACAUGAGGAUCACCCAUGUAAACGAUACCAGACGAGUAUUAGUCCCUUGGCAGCGUAGAGUGUCGUUUAUAGUAGGAUACC [TheoA-ms2@5] | 23.4 nM | 26.1 nM | – | – | 21 nM | –
UUCUACGGCGAUCUGGGUUUACCAGAUCGACGAGGACCGGUACGGCCGCCACUCGUGUUUCUUUAACAUGAGGAUCACCCAUGUA [#11 Tryptophan A Same State] | 53 nM | 78.7 nM | 66.1 nM | – | – | –
UUCUGGUCCCGUGAUACCAGAGACAUGAGGAUCACCCAUGUACAUGAGGAUCACCCAUGUUUCCCUUGGCAGCACUGUAGGGAGC [Exclusion Theophylline B GF 16] | 79.9 nM | 226 nM | – | – | 207 nM | –
UUGCAUAUCUUGGAUACCAGCACAUGAGGAUCACCCAUGUCCGCGGGAUAGCUCCAGAUGUGCCCUUGGCAGCCACAUGCACUUG [Quinzama] | 10.9 nM | 18.4 nM | – | – | 10.7 nM | –
UUGCCCAGUACGGCCGCCACUGUGUGCAGGGAACCCAGGUCCACAUGAGGAUCACCCAUGUACAGCAGGACCGGGUACUUGCAAU [Ininladia] | 8.14 nM | 11.9 nM | 10.6 nM | – | – | –
UUGGUACAUGAGGAUCACCCAUGUACUGAAGGAGCGGGACGAAUCUCAGGUAGGUCGCAGACAUGAGGAUCACCCAUGUAUUGGU [Exclusion Arginine A GF 16] | 18.9 nM | 16.4 nM | 19 nM | 13 nM | 16.5 nM | –
UUGUUGUUUGGAAGGAGCGUGGAUGAGUUAGAACAUGAGGAUCACCCAUGUUGGAUGAUACCGCAGGUAGGUCGCCGGGUGGUGG [11.aA] | 141 nM | 76.4 nM | 40 nM | 50.7 nM | 51.5 nM | –
UUGUUGUUUGGAAGGAGCGUGUAAGAUUAAGAACAUGAGGAUCACCCAUGUUUUAAGGGAGCACAGGUAGGUCGCCGGGUGGUGG [11.S] | 14.4 nM | 31.5 nM | 15.9 nM | 12.3 nM | 21.5 nM | –
UUUGCACAUGAGGAUCACCCAUGUACAGAUACCAGCCUCAUCUACGGCCCUUGGCAGCUGAGACAAUGGUGACGUGACGGGCUUU [Erqugere] | 13 nM | 14.4 nM | – | – | 13.2 nM | –
UUUGCACAUGAGGAUCACCCAUGUACAGAUACCAGCCUCAUCUACGGCCCUUGGCAGCUGAGACAAUGGUGACGUGAUGGGCUUU [Iserraxeso] | 12.9 nM | 14.7 nM | – | – | 11.8 nM | –
UUUUUCAUAGGUUAUAGUUAAGAAACUGAAGGAGCGUGGUAAUACACAGGUAGGUCGCAGAUUUUACAUGAGGAUCACCCAUGUU [JR_SSArginiA_Sub009] | 27.8 nM | 31.9 nM | 21.5 nM | 34.9 nM | 36.4 nM | –
UUUUUUUUUUACAUGAGGAUCACCCAUGUUCGAGGACCGGUACGGCCGCCACUCGUUUUUGUUGUGGUAGGGUUAGGGUUAGGGU [Turkey Lurky] | 19.4 nM | 92 nM | 44.8 nM | 43.5 nM | 25.5 nM | –
